# In PMC5648036:
# Tested on: SerRS-Avi-biotin (human cytosolic seryl-tRNA synthetase) (Homo sapiens)
# Assay: SPR
substance,measurement,value
WT tRNASer,Kd,3.3 nM
